Results taken from patent US20060015949A1.

What was measured:
[1] = target: recombinant soluble human CD4 (human) (UniProt P01730); experiment: SPR, sCD4 amine-coupled to sensor chip, mAb flowed over
[2] = target: recombinant soluble human CD4 (human) (UniProt P01730); experiment: BIAcore, rCD4 coupled to chip, mAb flowed over (avidity)
[3] = target: recombinant soluble human CD4 (human) (UniProt P01730); experiment: BIAcore, mAb captured by goat anti-human IgG Fc on chip, rCD4 flowed over (affinity)
[4] = target: recombinant soluble human CD4 (human) (UniProt P01730); experiment: BIAcore on rCD4 (column repeats Table 19)
[5] = target: native human CD4 on the cell surface (human) (UniProt P01730); experiment: flow cytometry, serial dilutions on SupT1 cells, half-maximal fluorescence
[6] = target: recombinant soluble human CD4 (human) (UniProt P01730); experiment: ratio of Ka on rCD4 (BIAcore) to Ka on nCD4 (SupT1 flow cytometry)

Row | Ka [1] | koff [1] | kon [1] | Ka [2] | koff [2] | kon [2] | Ka [3] | koff [3] | kon [3] | Ka [4] | Ka [5] | Ratio of Ka (rCD4/nCD4) [6] | Substance
1 | 3.7e+10 M⁻¹ | 0.00042 s⁻¹ | 150000 M⁻¹ s⁻¹ | 3.7e+10 M⁻¹ | 4.2e-06 s⁻¹ | 150000 M⁻¹ s⁻¹ |  |  |  |  |  |  | Leu3a (antibody)
2 |  |  |  | 3.4e+10 M⁻¹ | 1.2e-05 s⁻¹ | 400000 M⁻¹ s⁻¹ | 6.6e+08 M⁻¹ | 0.00023 s⁻¹ | 150000 M⁻¹ s⁻¹ | 3.4e+10 M⁻¹ | 5.6e+09 M⁻¹ | 6.1 | chimeric Leu3a (antibody)
